Data set [1] has as its target T1, U1A (UniProt P09012 P09012:1-282). In words: TR-FRET/HTRF; 5 nM U1A, 1.25 nM RNA; 150 mM NaCl, 25 mM HEPES pH 7.3, 1 mM DTT, 0.05% pluronic F-127, room temperature. Conditions: tags: His tag, LS Bio G19194-10; named Biotin5'). For orientation: TR-FRET usually uses a lanthanide donor and a delayed reading to cut background.
The target in data set [2] is T2, MSI2 (Musashi-2) (UniProt Q96DH6 Q96DH6:1-328). In words: TR-FRET/HTRF; 5 nM MSI2, 1.25 nM RNA; 150 mM NaCl, 25 mM HEPES pH 7.3, 1 mM DTT, 0.05% pluronic F-127, room temperature. Conditions: tags: His tag, LS Bio G2396; named Biotin5').
The target in data set [3] is T1, U1A. In words: competition; displaces Target-Biotin RNA from U1A; titrated from 1000 nM; IC50 only in figure. To be noted: tags: His tag, LS Bio G19194-10.
Data set [4] concerns the target T2, MSI2 (Musashi-2). The data set is described as follows: competition; displaces NUMB-Biotin RNA from MSI2; titrated from 1000 nM; IC50 only in figure. Conditions: tags: His tag, LS Bio G2396.

T1 sequence (P09012 whole entry, one chain of several): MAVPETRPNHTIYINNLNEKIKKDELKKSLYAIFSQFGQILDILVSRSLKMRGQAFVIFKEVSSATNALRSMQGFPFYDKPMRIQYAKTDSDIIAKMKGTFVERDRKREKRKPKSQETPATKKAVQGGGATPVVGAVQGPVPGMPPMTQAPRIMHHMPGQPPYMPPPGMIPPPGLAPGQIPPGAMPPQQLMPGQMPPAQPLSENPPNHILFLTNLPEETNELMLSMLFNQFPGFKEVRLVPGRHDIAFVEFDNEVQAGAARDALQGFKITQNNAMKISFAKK
T2 sequence (Q96DH6 whole entry, one chain of several): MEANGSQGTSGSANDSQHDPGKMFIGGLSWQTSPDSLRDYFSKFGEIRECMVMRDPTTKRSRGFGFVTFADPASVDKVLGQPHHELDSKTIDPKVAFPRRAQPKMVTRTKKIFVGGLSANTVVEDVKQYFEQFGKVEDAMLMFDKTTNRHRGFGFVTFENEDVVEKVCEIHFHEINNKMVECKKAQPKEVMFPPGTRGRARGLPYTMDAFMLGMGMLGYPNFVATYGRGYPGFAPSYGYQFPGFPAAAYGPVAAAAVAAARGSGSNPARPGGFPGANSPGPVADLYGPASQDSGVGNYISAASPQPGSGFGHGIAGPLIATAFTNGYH

Regarding AUUGCACUCCUUUUA (ssRNA) [U1A Target-Biotin RNA probe], the binding result with U1A [1] is listed as “binds”. In the case of UAGGUAGUAGUUUUA (ssRNA) [NUMB-Biotin RNA probe], the binding result in the data set with MSI2 (Musashi-2) [2] is recorded as “binds”. For the molecule AUUGCACUCCUUUUA (ssRNA) [U1A Target-CTRL RNA (unlabelled)], the binding result with U1A [3] is given as “binds”. With UAGGUAGUAGUUUUA (ssRNA) [NUMB-CTRL RNA (unlabelled)], in the data set with MSI2 (Musashi-2) [4], the binding result is listed as “binds”.

Values taken from patent US20220291209, “MOLECULAR TARGET IN CANCER” (The Regents of the University of California, published 2022).
